*1 amine or outer side, *2 acyl side, *3 side chain or, on linkers, in order; H or OH if unused. Side-chain parts run from the residue outwards. The star is where a group is joined. C18 diacid = O=C(O)CCCCCCCCCCCCCCCCC(=O)*; γGlu = O=C(O)[C@H](CCC(=O)[*:2])N[*:1]; Isovaleryl = CC(C)CC(=O)*; AEEA = NCCOCCOCC(=O)O
T1: human NPY1 receptor (human, UniProt P25929 1-384)
T1 sequence (looked up): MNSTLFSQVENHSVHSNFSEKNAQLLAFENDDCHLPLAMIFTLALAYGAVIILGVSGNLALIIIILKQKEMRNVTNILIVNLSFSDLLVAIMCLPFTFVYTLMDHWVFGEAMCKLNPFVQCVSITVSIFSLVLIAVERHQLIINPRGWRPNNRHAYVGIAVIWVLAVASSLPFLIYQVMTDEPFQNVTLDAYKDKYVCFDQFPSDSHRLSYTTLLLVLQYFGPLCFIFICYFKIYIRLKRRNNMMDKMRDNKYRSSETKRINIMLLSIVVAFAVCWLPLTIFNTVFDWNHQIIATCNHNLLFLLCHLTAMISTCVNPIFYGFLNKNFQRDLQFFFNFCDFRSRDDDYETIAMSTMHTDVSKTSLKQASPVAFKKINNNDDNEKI

T2: human neuropeptide Y2 receptor (human, UniProt P49146 1-381)
T2 sequence (looked up): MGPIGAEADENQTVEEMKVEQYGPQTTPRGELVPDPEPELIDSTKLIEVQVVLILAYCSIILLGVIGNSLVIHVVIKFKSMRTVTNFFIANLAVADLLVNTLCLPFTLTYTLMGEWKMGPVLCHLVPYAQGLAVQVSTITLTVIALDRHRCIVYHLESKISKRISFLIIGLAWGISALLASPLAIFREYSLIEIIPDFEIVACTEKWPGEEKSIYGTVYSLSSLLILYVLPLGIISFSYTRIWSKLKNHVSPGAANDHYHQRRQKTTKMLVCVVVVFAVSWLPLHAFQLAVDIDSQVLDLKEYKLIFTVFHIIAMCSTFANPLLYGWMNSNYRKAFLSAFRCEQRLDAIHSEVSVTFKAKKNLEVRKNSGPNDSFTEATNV

T3: human NPY5 receptor (human, UniProt Q15761 1-445)
T3 sequence (looked up): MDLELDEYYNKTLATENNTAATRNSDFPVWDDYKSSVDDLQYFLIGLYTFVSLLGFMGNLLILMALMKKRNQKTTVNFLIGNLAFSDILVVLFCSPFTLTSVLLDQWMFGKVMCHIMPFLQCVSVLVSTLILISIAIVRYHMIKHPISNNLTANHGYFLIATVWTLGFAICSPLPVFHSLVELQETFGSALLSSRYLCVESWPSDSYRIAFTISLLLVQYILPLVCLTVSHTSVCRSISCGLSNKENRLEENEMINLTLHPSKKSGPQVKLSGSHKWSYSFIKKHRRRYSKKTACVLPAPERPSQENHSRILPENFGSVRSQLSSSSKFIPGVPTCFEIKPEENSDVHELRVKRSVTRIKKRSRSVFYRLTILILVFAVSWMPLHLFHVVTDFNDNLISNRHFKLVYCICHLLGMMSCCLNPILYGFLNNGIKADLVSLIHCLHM


Key:
human NPY1 receptor = molecular target: T1, human NPY1 receptor; experiment: cell-based or functional assay
human NPY4 receptor = human NPY4 receptor (human, UniProt P50391 1-375); experiment: cell-based or functional assay
Sequence of human NPY4 receptor (P50391 whole entry): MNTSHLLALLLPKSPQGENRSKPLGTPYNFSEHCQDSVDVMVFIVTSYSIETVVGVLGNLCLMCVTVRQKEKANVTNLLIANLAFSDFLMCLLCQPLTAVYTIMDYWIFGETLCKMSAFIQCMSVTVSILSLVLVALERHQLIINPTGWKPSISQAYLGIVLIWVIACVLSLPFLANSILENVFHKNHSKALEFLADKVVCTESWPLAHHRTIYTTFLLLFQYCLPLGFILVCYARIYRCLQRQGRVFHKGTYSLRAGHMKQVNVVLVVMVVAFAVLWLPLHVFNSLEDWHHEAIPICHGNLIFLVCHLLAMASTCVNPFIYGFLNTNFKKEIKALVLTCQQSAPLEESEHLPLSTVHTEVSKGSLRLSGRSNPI

[1] = molecular target: T2, human neuropeptide Y2 receptor; experiment: cell-based or functional assay
human NPY5 receptor = molecular target: T3, human NPY5 receptor; experiment: cell-based or functional assay
[2] = molecular target: T2, human neuropeptide Y2 receptor; experiment: RLB 6: apparent Ki of filtrate after incubation at pH 6.1-6.2
[3] = molecular target: T2, human neuropeptide Y2 receptor; experiment: radioligand competition (125I-PYY(1-36)), hY2R membranes; DMSO stock
Method: (§1) The filtration RLB assay was carried out in 96-well plates in a final volume of 100 μl per well. Freeze-dried test peptides were dissolved in 100% dimethyl sulfoxide (DMSO) to stock solutions of 1 mM and serial dilutions were performed in assay buffer (50 mM HEPES, 5 mM MgCl₂, 1 mM CaCl₂, pH 7.4) containing 0.2% ovalbumin. […] Next, 80 μL membranes (HTS066M, ChemiSCREEN™ Human Neuropeptide Y2 Receptor Membrane Preparation, CHEMICON) were added to each well to give a final protein concentration of 0.5 μg/well. The plates were sealed and incubated at room temperature for 2 hours in a plate shaker set at 400 rpm. The incubation was stopped by vacuum filtration onto 0.5% poly-ethylene amine (PEI) presoaked GF/C filters using a 96-well FilterMate™ harvester (Perkin Elmer) followed by four washes with 300 μl/well ice-cold wash buffer (50 mM HEPES, 500 mM NaCl, pH7.4). Filter plates were then dried for 60 min at room temperature and the bottom of the plates was sealed with backing tape UniFilter-96. Finally, 50 μl/well scintillation counter cocktail (Microscint20, Packard) was added and the radioactivity was counted in the Packard TopCount NXT scintillation counter. IC₅₀ values (the half maximal inhibitory concentration of the agonist) were calculated by nonlinear regression analysis of sigmoidal dose-response curves.

[4] = molecular target: T2, human neuropeptide Y2 receptor; experiment: RLB 7: apparent Ki of filtrate after incubation at pH 7.1-7.2
Method: as §1
(§2) Peptides (as TFA salts) were weighed out in a filter unit (Mini-UniPrep Syringeless Filter 0.45 μm, Whatman), and 0.1 M sodium diphosphate buffer at pH 6.4 or 7.4, respectively, or 0.2 M TRIS buffer at pH 8.3 was added to achieve 10 mg/ml final concentration. The peptide was (partially) dissolved by shaking the filter unit horizontally at approx. 400 rpm for 2 hours at room temperature. The sample was filtered to remove any insoluble particles.

[5] = molecular target: T2, human neuropeptide Y2 receptor; experiment: RLB 8: apparent Ki of filtrate after incubation at pH 8.1-8.2
Method: as §1, §2

[6] = molecular target: T2, human neuropeptide Y2 receptor; experiment: ratio of apparent Ki, pH 6.1-6.2 over pH 7.1-7.2
Method: as §1, §2

[7] = molecular target: T2, human neuropeptide Y2 receptor; experiment: ratio of apparent Ki, pH 8.1-8.2 over pH 7.1-7.2
Method: as §1, §2

[8] = molecular target: T2, human neuropeptide Y2 receptor; experiment: radioligand competition (125I-PYY(1-36)), hNPY2R membranes
Procedure, shortened: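 Commercial human Y2 receptor membranes (0.5 μg protein/well) were incubated with peptide for 2 h at room temperature in 50 mM HEPES, 5 mM MgCl₂, 1 mM CaCl₂, pH 7.4, with 0.2% ovalbumin. Bound radioligand was separated on PEI-soaked GF/C filters and counted by scintillation, and IC₅₀ came from nonlinear sigmoidal regression.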

[9] = molecular target: T2, human neuropeptide Y2 receptor; experiment: cell-based or functional assay; remark: listed apart in the source

Binder | EC50 (HTRF cAMP Gi assay) (human NPY1 receptor) [nM] | EC50 (HTRF cAMP Gi assay) (human NPY4 receptor) [nM] | EC50 (HTRF cAMP Gi assay) [1] [nM] | EC50 (HTRF cAMP Gi assay) (human NPY5 receptor) [nM] | Ki [2] [nM] | Ki [3] [nM] | Ki [4] [nM] | Ki [5] [nM] | RLB ratio (RLB6/RLB7) [6] | RLB ratio (RLB8/RLB7) [7] | Ki [8] [nM] | EC50 (hY2 cAMP, HTRF cAMP Gi assay) [9] [nM]
Isovaleryl-APAK([AEEA-AEEA-γGlu-C18 diacid])PEEDASPEEIQRYYVSLRHYYNWLTRQRY-NH2 [Compound 23] | > 5000 | > 5000 | 0.15 | > 5000 | 6.3 | 4.9 | 6.3 | 6.3 | 1 | 1 | 0.63 | –
Isovaleryl-APEK([AEEA-AEEA-γGlu-C18 diacid])PEAPASPEELQRYYVELRHYYNWLTRQRY-NH2 (SMILES CC(C)CC(=O)N[C@@H](C)C(=O)N1CCC[C@H]1C(=O)N[C@@H](CCC(=O)O)C(=O)N[C@@H](CCCCNC(=O)COCCOCCNC(=O)COCCOCCNC(=O)CC[C@H](NC(=O)CCCCCCCCCCCCCCCCC(=O)O)C(=O)O)C(=O)N1CCC[C@H]1C(=O)N[C@@H](CCC(=O)O)C(=O)N[C@@H](C)C(=O)N1CCC[C@H]1C(=O)N[C@@H](C)C(=O)N[C@@H](CO)C(=O)N1CCC[C@H]1C(=O)N[C@@H](CCC(=O)O)C(=O)N[C@@H](CCC(=O)O)C(=O)N[C@@H](CC(C)C)C(=O)N[C@@H](CCC(N)=O)C(=O)N[C@@H](CCCNC(=N)N)C(=O)N[C@@H](Cc1ccc(O)cc1)C(=O)N[C@@H](Cc1ccc(O)cc1)C(=O)N[C@H](C(=O)N[C@@H](CCC(=O)O)C(=O)N[C@@H](CC(C)C)C(=O)N[C@@H](CCCNC(=N)N)C(=O)N[C@@H](Cc1c[nH]cn1)C(=O)N[C@@H](Cc1ccc(O)cc1)C(=O)N[C@@H](Cc1ccc(O)cc1)C(=O)N[C@@H](CC(N)=O)C(=O)N[C@@H](Cc1c[nH]c2ccccc12)C(=O)N[C@@H](CC(C)C)C(=O)N[C@H](C(=O)N[C@@H](CCCNC(=N)N)C(=O)N[C@@H](CCC(N)=O)C(=O)N[C@@H](CCCNC(=N)N)C(=O)N[C@@H](Cc1ccc(O)cc1)C(N)=O)[C@@H](C)O)C(C)C) [Compound 29] | – | – | – | – | 3.8 | 4.6 | 4.4 | 2.3 | 0.9 | 0.5 | 0.29 | –

Further lines, results first:

EC50 (HTRF cAMP Gi assay) (human NPY1 receptor) [nM] | EC50 (HTRF cAMP Gi assay) (human NPY4 receptor) [nM] | EC50 (HTRF cAMP Gi assay) [1] [nM] | EC50 (HTRF cAMP Gi assay) (human NPY5 receptor) [nM] | Ki [2] [nM] | Ki [3] [nM] | Ki [4] [nM] | Ki [5] [nM] | RLB ratio (RLB6/RLB7) [6] | RLB ratio (RLB8/RLB7) [7] | Ki [8] [nM] | EC50 (hY2 cAMP, HTRF cAMP Gi assay) [9] [nM] | Binder
– | – | – | – | – | – | – | – | – | – | 1.69 | 0.375 | Isovaleryl-RPEK([AEEA-AEEA-γGlu-C18 diacid])PGEDASPEELQRYYVSLRAYYNWLTRQRY-NH2 (SMILES CC(C)CC(=O)N[C@@H](CCCNC(=N)N)C(=O)N1CCC[C@H]1C(=O)N[C@@H](CCC(=O)O)C(=O)N[C@@H](CCCCNC(=O)COCCOCCNC(=O)COCCOCCNC(=O)CC[C@H](NC(=O)CCCCCCCCCCCCCCCCC(=O)O)C(=O)O)C(=O)N1CCC[C@H]1C(=O)NCC(=O)N[C@@H](CCC(=O)O)C(=O)N[C@@H](CC(=O)O)C(=O)N[C@@H](C)C(=O)N[C@@H](CO)C(=O)N1CCC[C@H]1C(=O)N[C@@H](CCC(=O)O)C(=O)N[C@@H](CCC(=O)O)C(=O)N[C@@H](CC(C)C)C(=O)N[C@@H](CCC(N)=O)C(=O)N[C@@H](CCCNC(=N)N)C(=O)N[C@@H](Cc1ccc(O)cc1)C(=O)N[C@@H](Cc1ccc(O)cc1)C(=O)N[C@H](C(=O)N[C@@H](CO)C(=O)N[C@@H](CC(C)C)C(=O)N[C@@H](CCCNC(=N)N)C(=O)N[C@@H](C)C(=O)N[C@@H](Cc1ccc(O)cc1)C(=O)N[C@@H](Cc1ccc(O)cc1)C(=O)N[C@@H](CC(N)=O)C(=O)N[C@@H](Cc1c[nH]c2ccccc12)C(=O)N[C@@H](CC(C)C)C(=O)N[C@H](C(=O)N[C@@H](CCCNC(=N)N)C(=O)N[C@@H](CCC(N)=O)C(=O)N[C@@H](CCCNC(=N)N)C(=O)N[C@@H](Cc1ccc(O)cc1)C(N)=O)[C@@H](C)O)C(C)C) [Ref. 3]
> 5000 | > 5000 | 0.119 | > 5000 | 3.4 | 2 | 3.1 | 2.5 | 1.1 | 0.8 | 0.24 | – | Isovaleryl-APEK([AEEA-AEEA-γGlu-C18 diacid])PEADASPEEIQRYYVSLRHYYNWLTRQRY-NH2 [Compound 53]
> 5000 | > 5000 | 0.173 | > 5000 | 7.7 | 6 | 9.3 | 7.5 | 0.8 | 0.8 | 0.66 | – | Isovaleryl-APAK([AEEA-AEEA-γGlu-C18 diacid])PEEDATPEELQRYYVSLRHYYNWLTRQRY-NH2 [Compound 106]
